Test results: US8722850B2, “Self-assembling peptides and their use in the formation of hydrogels” (Universita' Degli Studi di Milano Bicocca, priority 2010, dated 2014)
“Also recorded” adds a separate entry of the source. The star is where a group is joined. Biotin = O=C1N[C@H]2[C@H](CS[C@H]2CCCCC(=O)*)N1

Key:
[1] = Macro-scale scaffold formation upon exposure to PBS / neutral pH buffer; type: physicochemical; conditions: upon exposure to PBS (1×) / neutral pH buffer
Text: The tested peptides solutions appearance ranged from peptides giving clear liquid is solutions (e.g. 4, B15, B19, B25, B28, 30) to samples which become opaque in 1 to 7 days after dissolution (e.g. B3, B17, B22, B24, B27, 31) as shown in FIG. 2a (I). Most of the liquid solutions increased in viscosity over the first week after dissolution, however after ten days in water no appreciable changes happened at the macroscale.
(§1) Nonetheless, keeping constant the observation time, the storage moduli of peptide solutions previously dissolved (the day before) at 3% w/v were measured. Measurements were obtained of these peptide solutions, further diluted to 1% w/v at the same day of the experiment (unless otherwise specified), and, after addition of PBS, of the formed scaffolds.

[2] = system: human Neural Stem Cells (hNSCs); assay: Phase contrast imaging of hNSC morphology on scaffolds; type: cell-based; conditions: 7 days in vitro
Procedure: In vitro tests were performed following a previously adopted methodology (5). Briefly, cells (at a concentration of 6×10^4 cells/cm^2) were seeded on the top-surface of each assembled scaffold previously assembled into 96 multiwells. Initially, cells were cultured with basal medium supplemented with βFGF (10 ng/ml), added to enhance neuronal progeny differentiation. At 3 days in vitro (DIV), βFGF medium was replaced with Leukemia Inhibitory Factor (LIF, Chemicon) (20 ng/ml) and Brain Derived Neurotrophic Factor (BDNF, Peprotech) (20 ng/ml). Fresh medium was added every three days. Positive and negative controls consisted of CULTREX-BME® substrate (R&D systems) (1:100 dilution in basal medium) and untreated bottom well surfaces respectively.
To assess the potential of the proposed SAPs for cell cultures and, more generally, for regenerative medicine, a two-dimensional cell culture protocol already developed for RADA16-I-like peptides was adapted (5). Briefly, human Neural Stem Cells (hNSCs), mechanically dissociated 1 day before plating, were seeded and cultured for one week in vitro over self-assembled scaffolds of B3, 4, B15, B17, B19, B22, B24, B25, B27, B28, 30, 31 and over non-coated tissue culture plastic wells (negative control).

[3] = Self-healing tests of assembled scaffolds after mechanical rupture; type: physicochemical; conditions: recovery of scaffold stiffness after mechanical rupture
Procedure: (§2) Rheological properties were determined for the peptides of the invention, using a controlled stress TA Instruments AR-2000ex rheometer (TAInstruments). A cone-and-plate geometry (acrylic cone diameter, 20 mm; angle, 1°; truncation gap 34 μm) was used. All measurements were obtained at a constant monitored temperature of 25° C. Preliminary strain sweeps were performed for each sample to define the linear viscoelastic region, thus ensuring that moduli were independent of strain. Time sweeps, after addition of PBS (1×) were recorded at constant angular frequency (ω=1 Hz). Frequency sweeps, both for peptide water solutions and for self-assembled scaffolds, were performed with the instrument in oscillatory mode at controlled strain of 1%. Final: onset point of rupture was calculated by linear interpolation and subsequent determination of the intersection of the G′ modes in the linear region and at material rupture respectively. G′ values were averaged in the 1-100 Hz region and between n=3 independent replicates. During self-healing tests the self-assembled scaffold was torn by applying a strain sweep (0.01%-1000% strain range) at 1 Hz oscillatory frequency. G′ values were is recorded in frequency sweep mode (at 1% strain) or, in time sweep mode (at 1 Hz and at 1% strain), before and after the strain sweep step, subsequent observations were performed every half hour or, in case of time sweep test, every 30 seconds. In all of the SAPs the difference between the storage moduli measured before and after PBS addition spanned from two to four orders of magnitude, proving the dramatic biomechanical changes taking place during scaffold gelation. Peptide B3 (1%) yielded a solid stiff scaffold (G′=2917 Pa), supporting the idea that ionic charges may screen the electrostatic repulsions given by positively charged lysine residues and speed up the spontaneous ongoing self-assembling process, on its turn giving an already viscous (G′=67 Pa) and opaque solution at day 1. Among the peptides giving soft scaffold (100 Pa-1000 Pa range) peptides 4, B19, B25, B28 and 30 were included. On the opposite side, SAPs yielding solid stiff scaffolds are B15, B22, B24, B27 and 31 (5000 Pa-9000 Pa range).
Solid scaffolds were obtained via addition of PBS (1×) in a cone-and-plate rheometer; we measured the storage modulus, the samples were subjected to a strain sweep (0.01% to 1000%) until and far beyond rupture occurred (i.e. is monitoring the sudden drop of G′ value). Samples were then left in place (keeping them hydrated with PBS) and their G′ were measured every 30 minutes via frequency sweep tests in the range of 0.1 Hz to 60 Hz. As a negative control KLD-12, a well-known SAP, was tested (4, 6). […] In FIG. 6b peptide B25 (3% w/v concentration) was assessed for self-healing in a time sweep mode, every 30 seconds, at 1 Hz and at 1% strain. Values of G′ recovered after 100 minutes (1000 Pa) and steadily plateaued over time. For peptides B3, B22, B25 and B27 full recovery was obtained at different time intervals after rupture, ranging from 60′ to 240′. Similar results were confirmed by multiple independent experiments, but at different time ranges, for all of the self-assembling peptides except for B19 and B28.
Samples were checked for rupture by tilting. After a maximum of four hours all of the samples returned to their solidified gel appearance. This healing could be repeated at will.

[4] = Rheological tests (storage modulus G′, cone-and-plate rheometer); type: physicochemical
Procedure: as §2
The mechanical properties of the synthesized peptides were tested with a cone-and-plate rheometer. Firstly, the G′ dependence of peptide water solutions on concentration increments, and consequently aggregation kinetics, was assessed as shown in FIG. 2b.
as §1

Substance: Ac-F-GGG-AFASTKT-GIKVAV-CONH2 (Ac-FGGGAFASTKTGIKVAV-NH2) [compound 59]
- solid scaffold / hydrogel formation [1]: yielded solid scaffolds

Substance: Ac-F-GGG-AFSSTKT-CONH2 (Ac-FGGGAFSSTKT-NH2) [compound 61]
- solid scaffold / hydrogel formation [1]: yielded solid scaffolds

Substance: Ac-FGGG-PFSSTKT-CONH2 (Ac-FGGGPFSSTKT-NH2) [compound 37]
- solid scaffold / hydrogel formation [1]: yielded solid scaffolds

Substance: Ac-GGGPFSSTKT-CONH2 (Ac-GGGPFSSTKT-NH2) [peptide 2, biotin-deleted version of B3 that formed no scaffold]
- solid scaffold / hydrogel formation [1]: prevented any scaffold formation

Substance: Ac-WGGGAFASTKT-CONH2 (Ac-WGGGAFASTKT-NH2) [compound 30]
- solid scaffold / hydrogel formation [1]: yielded solid scaffolds
- cell morphology / degree of spreading [2]: single spherical cells

Substance: Ac-Y-GGG-PFSSTKT-CONH2 (Ac-YGGGPFSSTKT-NH2) [peptide 60]
- solid scaffold / hydrogel formation [1]: yielded solid scaffolds

Substance: Biot-GGGGGPFSSTKT-CONH2 (Biotin-GGGGGPFSSTKT-NH2; SMILES C[C@@H](O)[C@H](NC(=O)[C@H](CCCCN)NC(=O)[C@@H](NC(=O)[C@H](CO)NC(=O)[C@H](CO)NC(=O)[C@H](Cc1ccccc1)NC(=O)[C@@H]1CCCN1C(=O)CNC(=O)CNC(=O)CNC(=O)CNC(=O)CNC(=O)CCCC[C@@H]1SC[C@@H]2NC(=O)N[C@@H]21)[C@@H](C)O)C(N)=O) [peptide B25]
- solid scaffold / hydrogel formation [1]: yielded solid scaffolds
- self-healing property [3]: self-healing property has been seen

Substance: Biot-GGGKFSSTPT-CONH2 (Biotin-GGGKFSSTPT-NH2; SMILES C[C@@H](O)[C@H](NC(=O)[C@@H]1CCCN1C(=O)[C@@H](NC(=O)[C@H](CO)NC(=O)[C@H](CO)NC(=O)[C@H](Cc1ccccc1)NC(=O)[C@H](CCCCN)NC(=O)CNC(=O)CNC(=O)CNC(=O)CCCC[C@@H]1SC[C@@H]2NC(=O)N[C@@H]21)[C@@H](C)O)C(N)=O) [B64]
- solid scaffold / hydrogel formation [1]: yielded solid scaffolds; also recorded: self-assembled giving a hydrogel upon exposure to PBS

Substance: Biot-GGGPFSETKT-CONH2 (Biotin-GGGPFSETKT-NH2; SMILES C[C@@H](O)[C@H](NC(=O)[C@H](CCCCN)NC(=O)[C@@H](NC(=O)[C@H](CCC(=O)O)NC(=O)[C@H](CO)NC(=O)[C@H](Cc1ccccc1)NC(=O)[C@@H]1CCCN1C(=O)CNC(=O)CNC(=O)CNC(=O)CCCC[C@@H]1SC[C@@H]2NC(=O)N[C@@H]21)[C@@H](C)O)C(N)=O) [peptide B17]
- solid scaffold / hydrogel formation [1]: yielded solid scaffolds
- self-healing property [3]: self-healing property has been seen
- cell morphology / degree of spreading [2]: proliferated cell clusters

Substance: Biot-GGGPFSSKTT-CONH2 (Biotin-GGGPFSSKTT-NH2; SMILES C[C@@H](O)[C@H](NC(=O)[C@@H](NC(=O)[C@H](CCCCN)NC(=O)[C@H](CO)NC(=O)[C@H](CO)NC(=O)[C@H](Cc1ccccc1)NC(=O)[C@@H]1CCCN1C(=O)CNC(=O)CNC(=O)CNC(=O)CCCC[C@@H]1SC[C@@H]2NC(=O)N[C@@H]21)[C@@H](C)O)C(N)=O) [B66]
- solid scaffold / hydrogel formation [1]: self-assembled giving a hydrogel upon exposure to PBS

Substance: Biot-GGGPFSSTKT-CONH2 (Biotin-GGGPFSSTKT-NH2; SMILES C[C@@H](O)[C@H](NC(=O)[C@H](CCCCN)NC(=O)[C@@H](NC(=O)[C@H](CO)NC(=O)[C@H](CO)NC(=O)[C@H](Cc1ccccc1)NC(=O)[C@@H]1CCCN1C(=O)CNC(=O)CNC(=O)CNC(=O)CCCC[C@@H]1SC[C@@H]2NC(=O)N[C@@H]21)[C@@H](C)O)C(N)=O) [peptide B3]
- solid scaffold / hydrogel formation [1]: shifting to solid scaffold when exposed to neutral pH buffer; also recorded: yielded solid scaffolds
- storage modulus G′ of assembled scaffold (G′ post-assembling) ([4]; after PBS (1×) addition, averaged in 1-100 Hz range, 25° C., B3 at 1%): 2917 Pa
- time for G′ of peptide solution to reach a plateau ([4]; dissolved at 3% concentration in water): 2 days
- storage modulus G′ of peptide solution (pre-assembling) ([4]; water solution at day 1, 1%, before PBS): 67 Pa
- self-healing property [3]: self-healing property has been seen
- cell morphology / degree of spreading [2]: branched cells

Substance: Biot-GGGPFSSTTK-CONH2 (Biotin-GGGPFSSTTK-NH2; SMILES C[C@@H](O)[C@H](NC(=O)[C@H](CO)NC(=O)[C@H](CO)NC(=O)[C@H](Cc1ccccc1)NC(=O)[C@@H]1CCCN1C(=O)CNC(=O)CNC(=O)CNC(=O)CCCC[C@@H]1SC[C@@H]2NC(=O)N[C@@H]21)C(=O)N[C@H](C(=O)N[C@@H](CCCCN)C(N)=O)[C@@H](C)O) [B67]
- solid scaffold / hydrogel formation [1]: self-assembled giving a hydrogel upon exposure to PBS

Substance: Biot-GGGPKSSTFT-CONH2 (Biotin-GGGPKSSTFT-NH2; SMILES C[C@@H](O)[C@H](NC(=O)[C@H](Cc1ccccc1)NC(=O)[C@@H](NC(=O)[C@H](CO)NC(=O)[C@H](CO)NC(=O)[C@H](CCCCN)NC(=O)[C@@H]1CCCN1C(=O)CNC(=O)CNC(=O)CNC(=O)CCCC[C@@H]1SC[C@@H]2NC(=O)N[C@@H]21)[C@@H](C)O)C(N)=O) [B65]
- solid scaffold / hydrogel formation [1]: yielded solid scaffolds; also recorded: self-assembled giving a hydrogel upon exposure to PBS

Substance: Biot-GGGPWSSTKT-CONH2 (Biotin-GGGPWSSTKT-NH2; SMILES C[C@@H](O)[C@H](NC(=O)[C@H](CCCCN)NC(=O)[C@@H](NC(=O)[C@H](CO)NC(=O)[C@H](CO)NC(=O)[C@H](Cc1c[nH]c2ccccc12)NC(=O)[C@@H]1CCCN1C(=O)CNC(=O)CNC(=O)CNC(=O)CCCC[C@@H]1SC[C@@H]2NC(=O)N[C@@H]21)[C@@H](C)O)C(N)=O) [B27]
- solid scaffold / hydrogel formation [1]: yielded solid scaffolds
- self-healing property [3]: self-healing property has been seen

Substance: Biot-PFSSTKT-CONH2 (Biotin-PFSSTKT-NH2; SMILES C[C@@H](O)[C@H](NC(=O)[C@H](CCCCN)NC(=O)[C@@H](NC(=O)[C@H](CO)NC(=O)[C@H](CO)NC(=O)[C@H](Cc1ccccc1)NC(=O)[C@@H]1CCCN1C(=O)CCCC[C@@H]1SC[C@@H]2NC(=O)N[C@@H]21)[C@@H](C)O)C(N)=O) [peptide B7, non-assembling control peptide]
- solid scaffold / hydrogel formation [1]: not give a solid scaffold

Substance: Biotin-G-AFASTKT-CONH2 [B50]
- solid scaffold / hydrogel formation [1]: yielded solid scaffolds

Substance: Biotin-GGGAFASTKA-NH2 [B33]
- solid scaffold / hydrogel formation [1]: yielded solid scaffolds

Substance: Biotin-GGGAWASTKT-NH2 [B32]
- solid scaffold / hydrogel formation [1]: yielded solid scaffolds

Substance: Biotin-GGGGG-AFASTKT-CONH2 [B51]
- solid scaffold / hydrogel formation [1]: yielded solid scaffolds

Substance: Biotin-GGGPFSSTKTP-NH2 [B34]
- solid scaffold / hydrogel formation [1]: yielded solid scaffolds
